B1: 5mer-506 (peptide)
peptide: RGRLR
B2: 5mer-500 (peptide)
peptide: KSLQK
B3: 5mer-520 (peptide)
peptide: RVLLK
B4: 5mer-501 (peptide)
peptide: KLQRK
B5: 5mer-214 (peptide)
peptide: KQQCK
B6: 5mer-519 (peptide)
peptide: RLYSK
B7: 5mer-1 (peptide)
peptide: RVQCK
B8: 5mer-523 (peptide)
peptide: KQFQK
B9: 5mer-515 (peptide)
peptide: RGQRK
B10: 5mer-44 (peptide)
peptide: RSRTR
B11: 5mer-344 (peptide)
peptide: KQFQR
B12: 5mer-521 (peptide)
peptide: KRFRK
B13: 5mer-522 (peptide)
peptide: RLVYR
B14: 5mer-342 (peptide)
peptide: KVYQR
B15: 5mer-504 (peptide)
peptide: KQIQR
B16: 5mer-527 (peptide)
peptide: KSVQR
B17: 5mer-210 (peptide)
peptide: KVYYR
B18: 5mer-507 (peptide)
peptide: KWVQK
B19: 5mer-509 (peptide)
peptide: RVQRK
B20: 5mer-219 (peptide)
peptide: KQYTR
B21: 5mer-217 (peptide)
peptide: KLQRR
B22: 5mer-48 (peptide)
peptide: RVYLR
B23: 5mer-216 (peptide)
peptide: KWVRR
B24: 5mer-209 (peptide)
peptide: RGVRR
B25: 5mer-228 (peptide)
peptide: KRFLK
B26: 5mer-222 (peptide)
peptide: KWLLR
B27: 5mer-221 (peptide)
peptide: RGRTR
B28: 5mer-208 (peptide)
peptide: KLICR
B29: 5mer-202 (peptide)
peptide: KWYRR
B30: 5mer-201 (peptide)
peptide: RWIYR
B31: 5mer-528 (peptide)
peptide: RVLLR
B32: 5mer-42 (peptide)
peptide: RQRLR
B33: 5mer-516 (peptide)
peptide: KWQTR
B34: 5mer-512 (peptide)
peptide: RLYLK
B35: 5mer-517 (peptide)
peptide: KGYTR
B36: 5mer-505 (peptide)
peptide: RQIYR
B37: 5mer-200 (peptide)
peptide: KRVRR
B38: 5mer-40 (peptide)
peptide: KSVCR
B39: 5mer-199 (peptide)
peptide: KRYQR
B40: 5mer-203 (peptide)
peptide: RQLTR
B41: 5mer-499 (peptide)
peptide: RVLTK
B42: 5mer-526 (peptide)
peptide: KQFSR
B43: 5mer-524 (peptide)
peptide: RRICR
B44: 5mer-212 (peptide)
peptide: KQQYK
B45: 5mer-348 (peptide)
peptide: KRQTK
B46: 5mer-47 (peptide)
peptide: KGVRR
B47: 5mer-215 (peptide)
peptide: RQYRR
B48: 5mer-518 (peptide)
peptide: RVYYR
B49: 5mer-223 (peptide)
peptide: KQVRK
B50: 5mer-225 (peptide)
peptide: KRQQK
B51: 5mer-345 (peptide)
peptide: RQQRR
B52: 5mer-43 (peptide)
peptide: KSFYR
B53: 5mer-224 (peptide)
peptide: RLQRR
B54: 5mer-503 (peptide)
peptide: KRVSK
B55: 5mer-207 (peptide)
peptide: KQVRR
B56: 5mer-511 (peptide)
peptide: KSLSR
B57: 5mer-206 (peptide)
peptide: KLQLR
B58: 5mer-41 (peptide)
peptide: KVISK
B59: 5mer-341 (peptide)
peptide: RWYRR
B60: 5mer-45 (peptide)
peptide: RVFQR
B61: 5mer-340 (peptide)
peptide: KGYRR
B62: 5mer-205 (peptide)
peptide: RWYYR
B63: 5mer-502 (peptide)
peptide: RRISR
B64: 5mer-211 (peptide)
peptide: RLYYR
B65: 5mer-510 (peptide)
peptide: RQLSK
B66: 5mer-204 (peptide)
peptide: RQFQR
B67: 5mer-226 (peptide)
peptide: RRYTR
B68: 5mer-213 (peptide)
peptide: RQYTK
B69: 5mer-514 (peptide)
peptide: KLLLK
B70: 5mer-508 (peptide)
peptide: KGLQK
B71: 5mer-347 (peptide)
peptide: KRICR
B72: 5mer-525 (peptide)
peptide: KQRYK
B73: 5mer-227 (peptide)
peptide: RRQQR
B74: 5mer-220 (peptide)
peptide: KRILR
B75: 5mer-346 (peptide)
peptide: KGISK
B76: 5mer-46 (peptide)
peptide: KRQCK
B77: 5mer-218 (peptide)
peptide: KVQYK
B78: 5mer-513 (peptide)
peptide: RWYYK
B79: 5mer-343 (peptide)
peptide: KSFSR

Biological target: acetylcholine receptor
Assay: SPR, AchR on chip, peptide 10 uM

Row | Binding affinity (RU) | Binder
1 | 51 | B1
2 | 63 | B2
3 | 86 | B3
4 | 78 | B4
5 | 79 | B5
6 | 72 | B6
7 | 54 | B7
8 | 84 | B8
9 | 56 | B9
10 | 59 | B10
11 | 52 | B11
12 | 78 | B12
13 | 78 | B13
14 | 69 | B14
15 | 72 | B15
16 | 70 | B16
17 | 67 | B17
18 | 84 | B18
19 | 61 | B19
20 | 55 | B20
21 | 72 | B21
22 | 62 | B22
23 | 56 | B23
24 | 78 | B24
25 | 53 | B25
26 | 86 | B26
27 | 58 | B27

Row | Binding affinity (RU) | Binder
28 | 80 | B28
29 | 65 | B29
30 | 62 | B30
31 | 50 | B31
32 | 83 | B32
33 | 83 | B33
34 | 70 | B34
35 | 70 | B35
36 | 71 | B36
37 | 55 | B37
38 | 67 | B38
39 | 84 | B39
40 | 78 | B40
41 | 76 | B41
42 | 54 | B42
43 | 83 | B43
44 | 64 | B44
45 | 80 | B45
46 | 70 | B46
47 | 79 | B47
48 | 87 | B48
49 | 61 | B49
50 | 51 | B50
51 | 86 | B51
52 | 53 | B52
53 | 67 | B53
54 | 61 | B54

Row | Binding affinity (RU) | Binder
55 | 72 | B55
56 | 56 | B56
57 | 57 | B57
58 | 82 | B58
59 | 52 | B59
60 | 86 | B60
61 | 51 | B61
62 | 75 | B62
63 | 84 | B63
64 | 73 | B64
65 | 71 | B65
66 | 84 | B66
67 | 60 | B67
68 | 83 | B68
69 | 52 | B69
70 | 67 | B70
71 | 78 | B71
72 | 51 | B72
73 | 84 | B73
74 | 81 | B74
75 | 57 | B75
76 | 76 | B76
77 | 80 | B77
78 | 83 | B78
79 | 60 | B79

From US20250011363A1, “OPTIMIZED SHORTENED PEPTIDE THAT BINDS TO ACETYLCHOLINE RECEPTOR, AND USE THEREOF” (SKINMED CO., LTD., priority 2021, published 2025)
